Experimental findings from the supplement of paper PMC10567573 are described below.

± gives the standard deviation.

The nature of this data set: protein stability index of a GFP-peptide fusion (GPS, HEK-293T) (PSI 1-6); higher = more stable. The settings on record: c terminus: a fixed tail appended.
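Note: 24-mer peptide tiles fused after GFP, lentivirally expressed, FACS-sorted into six equal bins by GFP/DsRed ratio, decoded by Illumina sequencing, PSI is the read-weighted mean bin number.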

For the sequence EEKPQENKTWREQYLRLPDAPEQR [ELOA2], the protein stability index (treatment: DMSO) amounted to 5.18 ± 0.28 and the protein stability index (treatment: MLN4924 1 uM, 8 h) was 4.88 ± 0.11.

Consider EEMAVVPQGLFRGGKSGELEQEEE [CHGA], for which the protein stability index is, setting by setting: (treatment: DMSO) 5.63 ± 0.27; (treatment: MLN4924 1 uM, 8 h) 5.62 ± 0.18.

Regarding EEPQTVPEARSRDATPPVSPINME [JUNB], the protein stability index runs as follows: (treatment: DMSO) 5.38 ± 0.29; (treatment: MLN4924 1 uM, 8 h) 5.46 ± 0.27.

For EEVTRLGAQVKELEEKCQQPASEL [TRIM15], the protein stability index runs as follows: (treatment: DMSO) 5.5 ± 0.12; (treatment: MLN4924 1 uM, 8 h) 5.52 ± 0.13.

Sequence EEWNALQSVENCPEDLAQLEELID [RPAIN] had a protein stability index (treatment: DMSO) of 5.14 ± 0.29 and a protein stability index (treatment: MLN4924 1 uM, 8 h) of 5.29 ± 0.26.

In the case of EFAEMVEREEEDDALDSEGRDSEG [KCNG1], the protein stability index (treatment: DMSO) stood at 5.68 ± 0.22 and the protein stability index (treatment: MLN4924 1 uM, 8 h) was determined as 5.62 ± 0.29.

In the case of EFAGSSPQSSKSTVVKSLIDNSSE [FAN1], the protein stability index stood at 5.08 ± 0.27 (treatment: DMSO) and 5.28 ± 0.12 (treatment: MLN4924 1 uM, 8 h).

With EFLLDLGHHERSIMTDLYYLSQTD [FUT8], the protein stability index is, setting by setting: (treatment: DMSO) 2.2 ± 0.36; (treatment: MLN4924 1 uM, 8 h) 2.47 ± 0.16.

EGELGEYRQKLLMFLEISSYYDPG [VPS39]: the protein stability index worked out at 2.19 ± 0.22 (treatment: DMSO) and 2.18 ± 0.28 (treatment: MLN4924 1 uM, 8 h).

In the case of EGSIWRGAQMEKEWARALETRDWG [ZSWIM9], the protein stability index (treatment: DMSO) was 3.37 ± 0.3 and the protein stability index (treatment: MLN4924 1 uM, 8 h) turned out to be 3.42 ± 0.21.

Turning to EGYVWRGSQLEDQALRGLEGYTWR [ZSWIM9], the protein stability index turned out to be 2.7 ± 0.22 (treatment: DMSO) and 2.67 ± 0.18 (treatment: MLN4924 1 uM, 8 h).

As to EHQRSHTGERPHQCIECGKSFNRH [ZSCAN9], the protein stability index by setting is: (treatment: DMSO) 3.88 ± 0.41; (treatment: MLN4924 1 uM, 8 h) 4.17 ± 0.41.

For the sequence EIRRKEKEAVLAMEKKSKPKNSVW [RIT1], the protein stability index was 4.12 ± 0.17 (treatment: DMSO) and 4.29 ± 0.38 (treatment: MLN4924 1 uM, 8 h).

Consider EKALKKNVKLQELINHKKAEDTEK [CEP70], for which the protein stability index stood at 4.85 ± 0.34 (treatment: DMSO) and 5.07 ± 0.2 (treatment: MLN4924 1 uM, 8 h).

Consider EKALQVLVDQSKKANSPLKGHERT [VPS39], for which the protein stability index amounted to 4.06 ± 0.21 (treatment: DMSO) and 4.48 ± 0.26 (treatment: MLN4924 1 uM, 8 h).

Take EKESTELRAEEIETRVTSGSMEAL [PPFIA4]: the protein stability index (treatment: DMSO) was determined as 5.53 ± 0.17 and the protein stability index (treatment: MLN4924 1 uM, 8 h) came out at 5.45 ± 0.27.

As for EKFDIVKKWGINTYKCTKQLLSER [ARFIP2], the protein stability index by setting is: (treatment: DMSO) 2.78 ± 0.37; (treatment: MLN4924 1 uM, 8 h) 2.79 ± 0.19.

As for EKNIILEEKIQVLQQQNEDLKARI [MTUS2], the protein stability index was determined as 4.03 ± 0.24 (treatment: DMSO) and 4.04 ± 0.23 (treatment: MLN4924 1 uM, 8 h).

For the sequence EKNNHRAKDLRAPPEQGKIFIARR [SOAT1], the protein stability index by setting is: (treatment: DMSO) 3.16 ± 0.33; (treatment: MLN4924 1 uM, 8 h) 3.27 ± 0.5.

As to EKTNGATPLLMAARYGHLDMVEFL [FEM1C], the protein stability index was found to be 2.91 ± 0.2 (treatment: DMSO) and 3.05 ± 0.37 (treatment: MLN4924 1 uM, 8 h).

With ELAALLIERGASLEEVNDEGYTPL [ANKRD17], the protein stability index is, setting by setting: (treatment: DMSO) 2.34 ± 0.29; (treatment: MLN4924 1 uM, 8 h) 2.78 ± 0.53.

On to ELSKDAQASAAPAAPLPERNSLSA [SLC29A1], for which the protein stability index came out at 5.15 ± 0.12 (treatment: DMSO) and 5.05 ± 0.27 (treatment: MLN4924 1 uM, 8 h).

With EMDWAQMACHRCLVYLGDLSRYQN [SMG5], the protein stability index reads like this: (treatment: DMSO) 2.36 ± 0.4; (treatment: MLN4924 1 uM, 8 h) 2.17 ± 0.18.

Consider EMLSASRYPTISMVKPLLHMLLNT [ZBED1], for which the protein stability index came out at 2.6 ± 0.81 (treatment: DMSO) and 3.02 ± 0.79 (treatment: MLN4924 1 uM, 8 h).

In turn, ENAPIGTLLLRLNATDPDEGTNGQ [PCDHGC5] registered a protein stability index (treatment: DMSO) of 4.95 ± 0.15 and a protein stability index (treatment: MLN4924 1 uM, 8 h) of 4.92 ± 0.18.

ENIQDITVNIHRLHVKRSMGWKKA [ZMYND11]: the protein stability index (treatment: DMSO) is 2.98 ± 0.26 and the protein stability index (treatment: MLN4924 1 uM, 8 h) was 3.22 ± 0.49.

As to ENKPSTCSFSIERILGLDQKKDCV [HESX1], the protein stability index stood at 3.12 ± 0.49 (treatment: DMSO) and 3.42 ± 0.47 (treatment: MLN4924 1 uM, 8 h).

Consider ENRELYIKTTLRELLVYIVFLVDI [PKD2L1], for which the protein stability index reads like this: (treatment: DMSO) 2.58 ± 0.87; (treatment: MLN4924 1 uM, 8 h) 2.57 ± 0.82.

As for ENSGILQGKLIKRQRLAKNDRGDH [EFHC1], the protein stability index was determined as 3.85 ± 0.32 (treatment: DMSO) and 4.37 ± 0.11 (treatment: MLN4924 1 uM, 8 h).

ENYETVISLALFVLPKPKVISCLE [ZNF75A]: the protein stability index came to 3.11 ± 0.47 (treatment: DMSO) and 3.46 ± 0.28 (treatment: MLN4924 1 uM, 8 h).

Take EPVLTQTSEQAPSSAPRDVQARML [PTPRD]: the protein stability index was 5.13 ± 0.26 (treatment: DMSO) and 5.31 ± 0.26 (treatment: MLN4924 1 uM, 8 h).

Consider EQGEPLWTLEDEIHSPAHPEIEKA [ZNF649], for which the protein stability index by setting is: (treatment: DMSO) 5.44 ± 0.44; (treatment: MLN4924 1 uM, 8 h) 5.57 ± 0.22.

As to EQPITDFCSVIRINSTAPFEEQEN [ZNF277], the protein stability index by setting is: (treatment: DMSO) 4.4 ± 0.23; (treatment: MLN4924 1 uM, 8 h) 4.46 ± 0.3.

Turning to EQSLLSRWNPWSTEVPYATFTEHP [TPRG1], the protein stability index reads like this: (treatment: DMSO) 3.13 ± 0.22; (treatment: MLN4924 1 uM, 8 h) 3.06 ± 0.16.

In the case of ERDFPCPVCRKTSRYRSLRPNRQL [TRIM39], the protein stability index runs as follows: (treatment: DMSO) 2.93 ± 0.46; (treatment: MLN4924 1 uM, 8 h) 3.23 ± 0.45.

As for ERIVVAGNNEDVSFSRPADLDLIQ [MFF], the protein stability index is, setting by setting: (treatment: DMSO) 4.96 ± 0.075; (treatment: MLN4924 1 uM, 8 h) 4.21 ± 0.32.

ESKKNRVEINDLDPEVFKEMMRFI [SPOPL] displayed a protein stability index (treatment: DMSO) of 1.55 ± 0.31.

Consider ESLIVFMEQVHRGIKGLVRDSHGK [CPXM2], for which the protein stability index came to 2.26 ± 0.58 (treatment: DMSO) and 2.13 ± 0.76 (treatment: MLN4924 1 uM, 8 h).

For ESMYGDFQEAMTHLQHKLICTRKP [TENT5D], the protein stability index is, setting by setting: (treatment: DMSO) 3.54 ± 0.17; (treatment: MLN4924 1 uM, 8 h) 3.58 ± 0.38.

On to ESPRKRKKATEAIDSLRKSKRLRN [FBXO28], for which the protein stability index reads like this: (treatment: DMSO) 5.3 ± 0.23; (treatment: MLN4924 1 uM, 8 h) 5.33 ± 0.14.

Turning to ETAGQKPLSVHRPPTSGCLGPVPR [TSPAN10], the protein stability index runs as follows: (treatment: DMSO) 4.25 ± 0.46; (treatment: MLN4924 1 uM, 8 h) 4.22 ± 0.19.

Turning to ETEDVDYGETDFHKQDGKAGLFSQ [TMEM40], the protein stability index is 5.3 ± 0.27 (treatment: DMSO) and 5.36 ± 0.2 (treatment: MLN4924 1 uM, 8 h).

EVAGGGTPLLIAARYGHLDVVEYL [FEM1A]: the protein stability index reads like this: (treatment: DMSO) 2.46 ± 0.19; (treatment: MLN4924 1 uM, 8 h) 2.32 ± 0.34.

Consider EVELAYQEAMFNMATLNRTAAGLM [SEPHS2], for which the protein stability index is, setting by setting: (treatment: DMSO) 2.42 ± 0.46; (treatment: MLN4924 1 uM, 8 h) 2.56 ± 0.68.

Take EVGDPAPLGAGNLGPELIKESNAN [DPCD]: the protein stability index runs as follows: (treatment: DMSO) 5.31 ± 0.31; (treatment: MLN4924 1 uM, 8 h) 5.28 ± 0.1.

EYSKFCRMSYQDPAQLSCLPYLEH [NFE2L1]: the protein stability index reads like this: (treatment: DMSO) 2.52 ± 0.56; (treatment: MLN4924 1 uM, 8 h) 1.89 ± 0.42.

Turning to FATQTEELNKQVVSSSEQLQSCQA [KRT34], the protein stability index reads like this: (treatment: DMSO) 4.87 ± 0.28; (treatment: MLN4924 1 uM, 8 h) 4.86 ± 0.33.

Take FCGAPPVTPIIVLSIINFFERLCL [PHTF1]: the protein stability index reads like this: (treatment: DMSO) 2.87 ± 0.47; (treatment: MLN4924 1 uM, 8 h) 2.5 ± 0.46.

For the sequence FDPAEKYKMDHRRRGIALIFNHER [CASP6], the protein stability index by setting is: (treatment: DMSO) 2.89 ± 0.2; (treatment: MLN4924 1 uM, 8 h) 3.19 ± 0.39.

Turning to FEHEMEESKKNRVEINDLDPEVFK [SPOPL], the protein stability index reads like this: (treatment: DMSO) 4.99 ± 0.39; (treatment: MLN4924 1 uM, 8 h) 5.02 ± 0.32.

With FEPHSGEDYSRDEDHIAHIIELLG [SRPK2], the protein stability index runs as follows: (treatment: DMSO) 3.3 ± 0.19; (treatment: MLN4924 1 uM, 8 h) 3.63 ± 0.18.

Regarding FGAVNLSSPSNMLPVRPQTNALIG [CLINT1], the protein stability index is, setting by setting: (treatment: DMSO) 3.23 ± 0.12; (treatment: MLN4924 1 uM, 8 h) 3.26 ± 0.41.

For FGHLSVFSTSKWNHLLHHFVIGHL [FADS1], the protein stability index amounted to 2.58 ± 0.41 (treatment: DMSO) and 2.76 ± 0.78 (treatment: MLN4924 1 uM, 8 h).
